Results taken from patent publication US20260169005A1.

Key:
MSLN [1] = assay: ELISA on MSLN at pH 6, column 25 nM
MSLN [2] = assay: ELISA on MSLN at pH 6, column 6.25 nM
MSLN [3] = assay: ELISA on MSLN at pH 6, column 1.5625 nM
MSLN [4] = assay: ELISA on MSLN at pH 7, column 1.5625 nM
MSLN [5] = assay: ELISA on MSLN at pH 7, column 25 nM
MSLN [6] = assay: ELISA on MSLN at pH 7, column 6.25 nM
MSLN [7] = assay: ELISA on MSLN at pH 7, column 100 nM
MSLN [8] = assay: ELISA on MSLN at pH 6, column 100 nM

With NC the ELISA reading at 25nM, pH=6 (MSLN [1]) was 0.0152, the ELISA reading at 6.25nM, pH=6 (MSLN [2]) was 0.0183 and the ELISA reading at 1.5625nM, pH=6 (MSLN [3]) was 0.026. For the same substance, the ELISA reading at 1.5625nM, pH=7 (MSLN [4]) was 0.0385, the ELISA reading at 25nM, pH=7 (MSLN [5]) was 0.0354 and the ELISA reading at 6.25nM, pH=7 (MSLN [6]) was 0.0318. It also gave an ELISA reading at 100nM, pH=7 (MSLN [7]) of 0.0239 and an ELISA reading at 100nM, pH=6 (MSLN [8]) of 0.0154.
